Legend:
Assay type in all cases: biochemical, Mycolicibacterium smegmatis
Details in all cases: 50 mM sodium phosphate pH 7.0, 37 °C, 15 min
[1] = test system: NC(=O)c1cccnc1; assay: colorimetric ammonia formation, Lineweaver-Burk
Text: (§1) colorimetric ammonia formation, Lineweaver-Burk on PzaA

[2] = test system: NC(=O)c1cnccn1; assay: colorimetric ammonia formation, Lineweaver-Burk
Text: as §1

[3] = test system: NC(=O)c1ccncc1; assay: colorimetric ammonia formation, Lineweaver-Burk
Text: as §1

[4] = test system: NNC(=O)c1cccnc1; assay: colorimetric hydrazine formation (p-dimethylaminobenzaldehyde), Lineweaver-Burk
Text: (§2) colorimetric hydrazine formation (p-dimethylaminobenzaldehyde), Lineweaver-Burk on PzaA

[5] = test system: NNC(=O)c1ccncc1; assay: as above
Text: as §2

PzaA (Mycolicibacterium smegmatis MC2 155)
Km [1]: 0.0887 (0.0113) mM | Vmax [1]: 37.2 µmol/min/mg | Vmax/Km [1]: 419000 µL/min/mg | Km [2]: 0.143 (0.0078) mM | Vmax [2]: 11.7 µmol/min/mg | Vmax/Km [2]: 81800 µL/min/mg | Km [3]: 0.145 (0.0203) mM | Vmax [3]: 6.48 µmol/min/mg | Vmax/Km [3]: 44700 µL/min/mg | Km [4]: 1.26 (0.0475) mM | Vmax [4]: 23.7 µmol/min/mg | Vmax/Km [4]: 18800 µL/min/mg | Km [5]: 1.20 (0.271) mM | Vmax [5]: 1.51 µmol/min/mg | Vmax/Km [5]: 1260 µL/min/mg
